Measurements published in article PMC6927069.

Molecular target: latent myostatin
Test: BLI
Conditions: second pH 7.4

SRK-015
dissociation rate (koff), fold lower at pH 7.4 than at pH 5.0: approximately 20-fold
